Test results as given in US12290565B2, “Methods of using anti-PSGL-1 antibodies in combination with JAK inhibitors to treat T-cell mediated inflammatory diseases or cancers” (AltruBio Inc., priority 2021, dated 2025).

System: activated T cells
Assay: Fixed-ratio combination cytotoxicity assay, ruxolitinib + LH10, c43B6 or h9F9
Type: cell-based
Conditions: antibody with cross-linker
Description: PBMCs were obtained from peripheral blood of healthy donors. Isolation was performed by density centrifugation of blood on Ficoll (GE Healthcare, Cat #17-1440-03). The harvested PBMCs were used for the generation of activated T cells by incubating with PHA (3 μg/mL, SIGMA, Cat: L2769-10 mg) in RPMI-1640 medium (10% FBS, 1% Penicillin/Streptomycin and 2-Mercaptoethanol) for 2 days, followed by maintenance in medium containing recombinant human Interleukin-2 (5 ng/mL, R&D Systems, Cat. #202-IL-050) for an additional between about 4˜6 days.
In addition to 15A7H, anti-PSGL-1 antibodies LH10, c43B6 and h9F9 were tested for the ability to induce cell death in activated T cells. The purpose of this study was to determine whether apoptosis inducing anti-PSGL-1 antibodies plus ruxolitinib would result in a better cytotoxic effect on activated T cells. The combinatorial effect was evaluated using Chou-Talalay median effect analysis using fixed ratios of antibodies and ruxolitinib in cytotoxicity assays. […]
Cell apoptosis was determined as described in Example 1, and the combinatorial drug effect combination indexes (CI) were analyzed using CalcuSyn (Biosoft, Ferguson, MO, USA), which allows automated simulation of synergism or antagonism, where CI<1 indicates synergy, CI=1 indicates additivity, and CI>1 indicates antagonism.

B1: h9F9: anti-PSGL-1 antibody; heavy chain SEQ ID NO:35, light chain SEQ ID NO:39 (antibody)
heavy: EVQLVESGGGLVQPGGSLKLSCAASGFTFNTNAMNWVRQAPGKGLEWVARIRSKSNNYATYYADSVKDRFTISRDDSKSIIYLQMNSLKTEDTGIYYCVRGGSYWYFDVWGTGTTVTVSSASTKGPSVFPLAPCSRSTSESTAALGCLVKDYFPEPVTVSWNSGALTSGVHTFPAVLQSSGLYSLSSVVTVPSSSLGTKTYTCNVDHKPSNTKVDKRVESKYGPPCPPCPAPPVAGGPSVFLFPPKPKDTLMISRTPEVTCVVVDVSQEDPEVQFNWYVDGVEVHNAKTKPREEQFNSTYRVVSVLTVLHQDWLNGKEYKCKVSNKGLPSSIEKTISKAKGQPREPQVYTLPPSQEEMTKNQVSLTCLVKGFYPSDIAVEWESNGQPENNYKTTPPVLDSDGSFFLYSRLTVDKSRWQEGNVFSCSVMHEALHNHYTQKSLSLSLG
light: DVIMTQSPLSLPVSLGQPASISCRSSQSIVNSNGNTYLEWYLQKPGQSPRLLIYKVSNRFSGVPDRFSGSGSGTDFTLKISRVEAEDVGVYYCFQGSHVPWTFGGGTKLEIKRTVAAPSVFIFPPSDEQLKSGTASVVCLLNNFYPREAKVQWKVDNALQSGNSQESVTEQDSKDSTYSLSSTLTLSKADYEKHKVYACEVTHQGLSSPVTKSFNRGEC
cytotoxicity ability in activated T cells: had cytotoxicity ability
